This passage reports ECL signal results from patent US20120316071A1 (published 2012).

Test [1] concerns the target T1, rHuman CD44/Fc Chimera, CF (R&D Systems Cat#3660-CD) (human, UniProt P16070 21-220).
T1 construct: Bought protein
Nature of the test: ECL multispot (MSD), antigen spotted; blank spot of this well 261.

In test [2] the target is T2, rHuman EGF R/Fc Chimera, CF (R&D Systems Cat#344-ER) (human, UniProt P00533 25-645).
T2 construct: Bought protein; also called epidermal growth factor receptor
Described as above.

Test [3] addresses T3, rHuman IGF-1 sR, CF (R&D Systems Cat#391-GR) (human, UniProt P08069 31-932).
T3 construct: Bought soluble receptor; also called insulin-like growth factor-1 soluble receptor
The test is described as above.

For test [4], the target named is T4, rHuman Erythropoietin R/Fc Chimera, CF (R&D Systems Cat#963-ER) (human, UniProt P19235 25-250).
T4 construct: Bought protein; also called EPO R; EPO R/Fc
T4 sequence (looked up): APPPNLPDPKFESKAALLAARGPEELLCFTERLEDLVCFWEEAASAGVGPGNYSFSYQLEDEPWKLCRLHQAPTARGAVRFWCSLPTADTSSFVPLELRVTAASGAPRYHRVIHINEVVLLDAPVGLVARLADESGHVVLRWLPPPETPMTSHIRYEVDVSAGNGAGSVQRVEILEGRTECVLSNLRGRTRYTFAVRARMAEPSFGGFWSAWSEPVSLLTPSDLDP
The description is as above.

The target in test [5] is T5, rHuman Notch-1/Fc Chimera, CF (R&D Systems Cat#3647-TK) (human, UniProt P46531 19-526).
T5 construct: Bought protein
The description is as above.

Test [6] addresses T6, Recombinant Human DLL4 (R&D Systems Cat#1506-D4/CF) (human, UniProt Q9NR61 27-524).
T6 construct: Bought recombinant protein; also called delta-like protein 4; rHuman DLL4
The description is as above.

Test [7] addresses T7, rHuman P-Cadherin/Fc Chimera, CF (R&D Systems Cat#861-PC) (human, UniProt P22223 108-654).
T7 construct: Bought protein
The description is as above.

In test [8] the target is T8, rHuman HGF R/c-MET/Fc Chimera, CF (R&D Systems Cat#358-MT/CF) (human, UniProt P08581 25-932).
T8 construct: Bought protein; also called HGF R/Fc; hepatocyte growth factor receptor
The test is described as above.

Test [9] concerns the target T9, rHuman ErbB2/Fc Chimera, CF (R&D Systems Cat#1129-ER) (human, UniProt P04626 23-652).
T9 construct: Bought protein; also called human epidermal growth factor 2 receptor
Described as above.

In test [10] the target is T10, rHuman Erythropoietin R/Fc Chimera, CF (R&D Systems Cat#963-ER) (human, UniProt P19235 25-250). Nature of the test: ECL multispot (MSD) assay, antigen spotted on plate, Fab in solution; blank spot of this well 338.
The target of test [11] is T11, rHuman Notch-1/Fc Chimera, CF (R&D Systems Cat#3647-TK) (human).
T11 chain: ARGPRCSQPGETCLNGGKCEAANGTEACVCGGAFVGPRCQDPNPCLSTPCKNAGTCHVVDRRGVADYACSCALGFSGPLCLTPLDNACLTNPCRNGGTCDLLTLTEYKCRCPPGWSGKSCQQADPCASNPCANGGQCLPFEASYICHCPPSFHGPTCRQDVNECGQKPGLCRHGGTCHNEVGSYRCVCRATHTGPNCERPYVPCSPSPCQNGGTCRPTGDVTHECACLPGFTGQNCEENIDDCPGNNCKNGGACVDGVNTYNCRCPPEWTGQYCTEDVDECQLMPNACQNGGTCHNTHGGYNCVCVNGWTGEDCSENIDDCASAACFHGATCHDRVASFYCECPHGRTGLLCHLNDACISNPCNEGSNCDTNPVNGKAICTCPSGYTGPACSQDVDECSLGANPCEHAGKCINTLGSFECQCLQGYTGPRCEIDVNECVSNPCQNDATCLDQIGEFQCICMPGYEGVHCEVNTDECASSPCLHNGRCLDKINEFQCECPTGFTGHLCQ
The test is described as above.

Test [12] addresses T12, rHuman HGF R/c-MET/Fc Chimera, CF (R&D Systems Cat#358-MT/CF) (human, UniProt P08581 25-932). The test is described as above.
The target of test [13] is T13, rHuman P-Cadherin/Fc Chimera, CF (R&D Systems Cat#861-PC) (human, UniProt P22223 108-654). The test is described as above.
The target in test [14] is T14, rHuman CD44/Fc Chimera, CF (R&D Systems Cat#3660-CD) (human, UniProt P16070 21-220). The description is as above.
Test [15] concerns the target T10, rHuman Erythropoietin R/Fc Chimera, CF …. The experiment in a line: ECL multispot (MSD) assay, antigen spotted on plate, Fab in solution; blank spot of this well 271.
For test [16], the target named is T15, Recombinant Human DLL4 (R&D Systems Cat#1506-D4/CF) (human, UniProt Q9NR61 27-524).
T15 construct: Bought recombinant protein; also called delta-like protein 4; rHuman DLL4
The test is described as above.

Test [17] has as its target T11, rHuman Notch-1/Fc Chimera, CF (R&D …). The description is as above.
Test [18] concerns the target T12, rHuman HGF R/c-MET/Fc Chimera, CF (R&D …). The description is as above.
Test [19] addresses T13, rHuman P-Cadherin/Fc Chimera, CF (R&D …). The test is described as above.
Test [20] has as its target T16, rHuman IGF-1 sR (insulin-like growth factor-1 soluble receptor), CF (R&D Systems Cat#391-GR) (human, UniProt P08069 31-932).
T16 construct: Bought recombinant soluble receptor
Described as above.

The target in test [21] is T14, rHuman CD44/Fc Chimera, CF (R&D Systems …). The test is described as above.

B1: Fab VH1-46_IGHD6-6*01_IGHJ1*01 S102A/S103P/S104F (APF) & L6_IGKJ1*01 R91Q (Fab, V domains shown)
VH: QVQLVQSGAEVKKPGASVKVSCKASGYTFTSYYMHWVRQAPGQGLEWMGIINPSGGSTSYAQKFQGRVTMTRDTSTSTVYMELSSLRSEDTAVYYCAREEYAPFSAEYFQHWGQGTLVTVSS
VL: EIVLTQSPATLSLSPGERATLSCRASQSVSSYLAWYQQKPGQAPRLLIYDASNRATGIPARFSGSGSGTDFTLTISSLEPEDFAVYYCQQQSNWPPWTFGQGTKVEIKR
notes: Fab made in E. coli: VH cloned into Plasmid A (CH1, His6 and Flag tags), VL into Plasmid C (kappa CL); also called APF / R91Q
For B1, the ECL signal was found to be 268 in test [1]; 290 in [2]; 210 in [3]; 263 in [4]; 229 in test [5]; 817 in test [6]. The ECL signal worked out at 314 in [7], 325 in test [8] and 234 in [9].

B2: Fab VH1-46_IGHD6-6*01_IGHJ1*01 S102A/S103P/S104F (APF) & L6_IGKJ1*01 S92C (Fab, V domains shown)
VH: QVQLVQSGAEVKKPGASVKVSCKASGYTFTSYYMHWVRQAPGQGLEWMGIINPSGGSTSYAQKFQGRVTMTRDTSTSTVYMELSSLRSEDTAVYYCAREEYAPFSAEYFQHWGQGTLVTVSS
VL: EIVLTQSPATLSLSPGERATLSCRASQSVSSYLAWYQQKPGQAPRLLIYDASNRATGIPARFSGSGSGTDFTLTISSLEPEDFAVYYCQQRCNWPPWTFGQGTKVEIKR
notes: Fab made in E. coli (heavy chain in plasmid A with CH1, His6 and Flag tags; kappa light chain in plasmid C); also called APF / S92C
Consider B2, for which the ECL signal in [10] stood at 302; in [11], 125; in test [12] it was 335; in test [13], 265; in test [14], 156.

B3: Fab VH1-46_IGHD6-6*01_IGHJ1*01 S102A/S103P/S104F (APF) & L6_IGKJ1*01 S92N (Fab, V domains shown)
VH: QVQLVQSGAEVKKPGASVKVSCKASGYTFTSYYMHWVRQAPGQGLEWMGIINPSGGSTSYAQKFQGRVTMTRDTSTSTVYMELSSLRSEDTAVYYCAREEYAPFSAEYFQHWGQGTLVTVSS
VL: EIVLTQSPATLSLSPGERATLSCRASQSVSSYLAWYQQKPGQAPRLLIYDASNRATGIPARFSGSGSGTDFTLTISSLEPEDFAVYYCQQRNNWPPWTFGQGTKVEIKR
notes: Fab made in E. coli (heavy chain in plasmid A with CH1, His6 and Flag tags; kappa light chain in plasmid C); also called APF / S92N
Turning to B3, the ECL signal in [15] was 304; in test [16], 2090; in test [17], 193; in [18], 405; in test [19], 240; in [20] it was 211. The ECL signal in [21] turned out to be 316.
